In assay [1] the target is IgG (Gammanorm). The assay is described as follows: SPR (Biacore), variant amine-coupled to CM5 chip, Gammanorm as analyte, 1:1 kinetic fit. On the technique in general: Surface plasmon resonance follows binding to a sensor surface in real time, without labels.
Assay [2] deals with IgG (Gammanorm). The assay is described as follows: SPR (Biacore), variant amine-coupled to CM5 chip, Gammanorm as analyte, steady state affinity fit.
Assay [3] concerns the target Fab-fragment produced from Trastuzumab by papain cleavage. The assay is described as follows: column dynamic binding capacity at 10% breakthrough, Fab-fragment, 6 min residence time; ligand density 10.6.
Assay [4] has the same target. The assay is described as follows: column dynamic binding capacity at 10% breakthrough, Fab-fragment, 1 min residence time, duplicate columns.
Assay [5] concerns the target Adalimumab. The assay is described as follows: column dynamic binding capacity at 10% breakthrough, 6 min residence time; ligand density about 14.3 mg/ml.
For assay [6], the target named is Adalimumab. The assay is described as follows: column dynamic binding capacity at 10% breakthrough, 4 min residence time; ligand density about 14.3 mg/ml.
Assay [7] concerns the target Fab-fragment produced from Trastuzumab by papain cleavage. The assay is described as follows: column dynamic binding capacity at 10% breakthrough, Fab-fragment, 6 min residence time; ligand density 11.0.
Assay [8] addresses dAb (VL single domain antibody). The assay is described as follows: column dynamic binding capacity at 10% breakthrough, dAb, 10 min residence time, duplicate columns.
The next assay addresses Herceptin (Trastuzumab). The assay is described as follows: column dynamic binding capacity at 10% breakthrough, Trastuzumab, 4 min residence time, at CIP cycle 35 (0.1 M NaOH).
The target in assay [9] is dAb (VL single domain antibody). The assay is described as follows: column dynamic binding capacity at 10% breakthrough, dAb, 2.4 min residence time, duplicate columns.
The target is the same in assay [10]. The assay is described as follows: column dynamic binding capacity at 10% breakthrough, dAb, 4 min residence time, duplicate columns.
Assay [11] has the same target. The assay is described as follows: column dynamic binding capacity at 10% breakthrough, dAb, 6 min residence time, duplicate columns.
The target in assay [12] is Fab-fragment produced from Trastuzumab by papain cleavage. The assay is described as follows: column dynamic binding capacity at 10% breakthrough, Fab-fragment, 6 min residence time, duplicate columns.
The target is the same in assay [13]. The assay is described as follows: column dynamic binding capacity at 10% breakthrough, Fab-fragment, 10 min residence time, duplicate columns.

Chain of Pentamer of SEQ ID NO:3 (ligand B2-1, pAM237) immobilized on cross-linked agarose beads (prototype separation matrix) (chain): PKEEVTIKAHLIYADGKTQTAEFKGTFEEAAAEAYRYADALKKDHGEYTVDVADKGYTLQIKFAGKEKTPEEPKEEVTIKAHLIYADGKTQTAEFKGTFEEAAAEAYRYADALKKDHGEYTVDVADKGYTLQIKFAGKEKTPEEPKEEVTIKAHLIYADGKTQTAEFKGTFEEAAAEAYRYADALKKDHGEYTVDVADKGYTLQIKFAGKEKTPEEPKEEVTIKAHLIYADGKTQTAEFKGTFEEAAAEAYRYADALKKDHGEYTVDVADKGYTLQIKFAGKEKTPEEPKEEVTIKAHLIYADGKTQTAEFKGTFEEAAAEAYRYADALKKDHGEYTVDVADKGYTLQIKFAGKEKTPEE

Broadly, the Kd is the concentration at which binding is half-saturated. For “Protein L variant pAM250 (domain B1b-2; H10, H45, Y60)”, the Kd in the assay with IgG (Gammanorm) [1] came to 40 nM; with IgG (Gammanorm) [2], 99 nM.
For “Protein L variant pAM256 (domain C1b-2; H10, H45, Y60)” the same measures were 59 nM and 134 nM.
The matching figures for “Protein L variant pAM240 (domain B5b-1; H10, H45, Q60)”: 15 nM and 79 nM.
For “Protein L variant pAM241 (domain C1-1; H10, H45, Q60)” the same measures were 87 nM and 187 nM.
For “Pentamer of SEQ ID NO:3 (ligand B2-1, pAM237) immobilized on cross-linked agarose beads (prototype separation matrix)”, the DBC Qb10% 6 min RT in assay [3] stood at 56.8; in assay [7], 55.5. Also, the DBC Qb10% in [4] was determined as 48.1; with Adalimumab [5], 67 mg/mL; with Adalimumab [6] it was 57 mg/mL.
Take “Protein L variant pAM242 (domain C1b-1; H10, H45, Q60)”: the Kd in the assay with IgG (Gammanorm) [1] amounted to 49 nM; with IgG (Gammanorm) [2], 116 nM.
For “Protein L variant pAM255 (domain C1-2; H10, H45, Y60)” the same measures were 146 nM and 324 nM.
On to “Capto™ L (Cytiva™), commercial Protein L matrix”, for which the DBC Qb10% in assay [8] was 16.7; with Herceptin (Trastuzumab), 21; in assay [9] it was 15.8; in [10], 16.2; in [4], 16.9; in [11], 16.4.
Take TOYOPEARL® AF-r Protein L-650F (Tosoh): the DBC Qb10% in assay [8] came to 26; in assay [9], 23.7; in [12] it was 57.7; in [10] it was 25.2; in [4], 43.7; in assay [11] it was 26.3. In [13], this substance yielded a DBC Qb10% of 58.1.
On to “Protein L variant pAM236 (domain B1b-1; H10, H45, Q60)”, for which the Kd in the assay with IgG (Gammanorm) [1] worked out at 61 nM; in the assay with IgG (Gammanorm) [2] it was 130 nM.
In the case of “Protein L construct pAM114 (wt B3 domain; N10, N45, N60)”, the Kd with IgG (Gammanorm) [1] came out at 11 nM; with IgG (Gammanorm) [2], 46 nM.
For “Protein L variant pAM254 (domain B5b-2; H10, H45, Y60)” the same measures were 7 nM and 41 nM.

Values taken from patent publication US20250196025A1.
